Columns and labels:
[1] = molecular target: AH6-DEVD-hGH expressed from pAPT-Y-AH6-DEVD-hGH-Lacuv5-rev-CASP3
[2] = molecular target: DH6-DEVD-hGH expressed from pAPT-Y-DH6-DEVD-hGH-Lacuv5-rev-CASP3
[3] = molecular target: H6-DEVD-hGH expressed from pAPT-Y-H6-DEVD-hGH-Lacuv5-rev-CASP3
[4] = molecular target: H6-DEVD-hGH expressed from pETDuet-H6-DEVD-hGH-T7-rev-CASP3
[5] = molecular target: HAK-DEVD-hGH expressed from pAPT-Y-HAK-DEVD-hGH-Lacuv5-rev-CASP3
[6] = molecular target: KH6-DEVD-hGH expressed from pAPT-Y-KH6-DEVD-hGH-Lacuv5-rev-CASP3
Chain of KH6-DEVD-hGH expressed from pAPT-Y-KH6-DEVD-hGH-Lacuv5-rev-CASP3 (chain, as listed by the source): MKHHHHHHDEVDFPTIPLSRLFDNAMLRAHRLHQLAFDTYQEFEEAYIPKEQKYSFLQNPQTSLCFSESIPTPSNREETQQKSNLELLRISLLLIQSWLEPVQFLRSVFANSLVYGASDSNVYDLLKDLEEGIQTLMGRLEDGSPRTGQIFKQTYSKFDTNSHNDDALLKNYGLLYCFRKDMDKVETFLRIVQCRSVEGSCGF

[7] = molecular target: NH6-DEVD-hGH expressed from pAPT-Y-NH6-DEVD-hGH-Lacuv5-rev-CASP3
Chain of NH6-DEVD-hGH expressed from pAPT-Y-NH6-DEVD-hGH-Lacuv5-rev-CASP3 (chain, as listed by the source): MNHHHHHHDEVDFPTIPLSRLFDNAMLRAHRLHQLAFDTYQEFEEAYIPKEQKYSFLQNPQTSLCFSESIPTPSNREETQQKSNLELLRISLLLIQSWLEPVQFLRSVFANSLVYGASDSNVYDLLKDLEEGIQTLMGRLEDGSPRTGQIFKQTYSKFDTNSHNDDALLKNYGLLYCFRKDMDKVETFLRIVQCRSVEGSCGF

Chain of H6-DEVD-hGH expressed from pAPT-Y-H6-DEVD-hGH-Lacuv5-rev-CASP3 (chain, as listed by the source): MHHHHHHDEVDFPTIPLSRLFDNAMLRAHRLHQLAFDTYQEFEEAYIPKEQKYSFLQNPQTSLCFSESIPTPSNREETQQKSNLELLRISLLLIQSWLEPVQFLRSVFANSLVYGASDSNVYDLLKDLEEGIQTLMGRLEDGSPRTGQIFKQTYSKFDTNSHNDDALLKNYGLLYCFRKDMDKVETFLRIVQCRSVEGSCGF
Chain of AH6-DEVD-hGH expressed from pAPT-Y-AH6-DEVD-hGH-Lacuv5-rev-CASP3 (chain, as listed by the source): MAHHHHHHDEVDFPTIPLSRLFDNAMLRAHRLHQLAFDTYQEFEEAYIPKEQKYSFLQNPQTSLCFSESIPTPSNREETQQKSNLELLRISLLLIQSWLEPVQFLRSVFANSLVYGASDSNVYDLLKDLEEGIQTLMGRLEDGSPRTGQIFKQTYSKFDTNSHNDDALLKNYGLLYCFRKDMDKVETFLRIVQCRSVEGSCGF
Chain of DH6-DEVD-hGH expressed from pAPT-Y-DH6-DEVD-hGH-Lacuv5-rev-CASP3 (chain, as listed by the source): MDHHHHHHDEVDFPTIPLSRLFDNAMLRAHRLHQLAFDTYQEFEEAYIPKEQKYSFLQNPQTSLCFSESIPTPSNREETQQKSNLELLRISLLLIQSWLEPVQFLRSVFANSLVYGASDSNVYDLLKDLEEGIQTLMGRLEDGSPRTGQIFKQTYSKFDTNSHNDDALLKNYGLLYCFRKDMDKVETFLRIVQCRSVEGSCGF
Chain of HAK-DEVD-hGH expressed from pAPT-Y-HAK-DEVD-hGH-Lacuv5-rev-CASP3 (chain, as listed by the source): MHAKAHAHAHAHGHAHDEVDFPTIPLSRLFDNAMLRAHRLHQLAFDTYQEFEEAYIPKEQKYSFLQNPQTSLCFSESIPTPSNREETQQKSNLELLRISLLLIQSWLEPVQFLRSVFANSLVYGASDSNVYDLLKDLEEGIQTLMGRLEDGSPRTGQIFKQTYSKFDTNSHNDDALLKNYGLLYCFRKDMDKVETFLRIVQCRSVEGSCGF
Chain of H6-DEVD-hGH expressed from pETDuet-H6-DEVD-hGH-T7-rev-CASP3 (chain, as listed by the source): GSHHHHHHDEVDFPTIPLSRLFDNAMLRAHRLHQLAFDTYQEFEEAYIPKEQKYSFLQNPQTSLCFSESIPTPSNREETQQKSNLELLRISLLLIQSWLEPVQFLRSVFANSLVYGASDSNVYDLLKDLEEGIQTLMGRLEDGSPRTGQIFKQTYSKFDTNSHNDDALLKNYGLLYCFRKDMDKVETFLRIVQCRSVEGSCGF

B1: reverse caspase-3 (protein)
chain: MIETDSGVDDDMACHKIPVEADFLYAYSTAPGYYSWRNSKDGSWFIQSLCAMLKQYADKLEFMHILTRVNRKVATEFESFSFDATFHAKKQIPCIVSMLTKELYFYHDEVDGENTENSVDSKSIKNLEPKIIHGSESMDSGISLDNSYKMDYPEMGLCIIINNKNFHKSTGMTSRSGTDVDAANLRETFRNLKYEVRNKNDLTREEIVELMRDVSKEDHSKRSSFVCVLLSHGEEGIIFGTNGPVDLKKITNFFRGDRCRSLTGKPKLFIIQACRGTELDCGIETD
[1]
  cleavage of synthetic tag (Western blot, co-expression in E. coli): 99.30% or more of the synthetic tag was cleaved
[2]
  cleavage of synthetic tag (Western blot, co-expression in E. coli): 99.30% or more of the synthetic tag was cleaved
[3]
  cleavage of synthetic tag (Western blot, co-expression in E. coli): 99.30% or more of the synthetic tag was cleaved
[4]
  cleavage of N-terminal methionine and synthetic tag (Western blot, co-expression in E. coli): 96.12% of the N-terminal methionine of the growth hormone protein and the synthetic tag was cleaved
[5]
  cleavage of synthetic tag (Western blot, co-expression in E. coli): 99.30% or more of the synthetic tag was cleaved
[6]
  cleavage of synthetic tag (Western blot, co-expression in E. coli): 99.30% or more of the synthetic tag was cleaved
[7]
  cleavage of synthetic tag (Western blot, co-expression in E. coli): 99.30% or more of the synthetic tag was cleaved

— patent US20220119792
